US20060140968A1 (GREEN PEPTIDE, published 2006)

T1: HLA-A0201 (human, UniProt P04439 25-302 at identity 0.94))
T1 MHC heavy: not shown

T2: HLA-A2402 (human, UniProt P04439-2 25-302 at identity 0.92))
T2 MHC heavy: not shown

B1: SART-3 peptide "302-310" (peptide)
peptide: LLQAEAPRL
B2: SART-3 peptide "152-160" (peptide)
peptide: WLHDEISMA
B3: SART-3 peptide "386-394" (peptide)
peptide: LLAMERHGV
B4: SART-3 peptide "309-317" (peptide)
peptide: RLAEYQAYI
B5: SART-3 peptide "249-257" (peptide)
peptide: SLFRRQLAI
B6: SART-3 peptide "315-323" Ala-Tyr-Ile-Asp-Phe-Glu-Met-Lys-Ile (peptide)
peptide: AYIDFEMKI
B7: SART-3 peptide "426-434" Asp-Tyr-Leu-Arg-Arg-Arg-Val-Asp-Phe (peptide)
peptide: DYLRRRVDF
B8: SART-3 peptide "172-181" Leu-Phe-Glu-Lys-Ala-Val-Lys-Asp-Tyr-Ile (peptide)
peptide: LFEKAVKDYI
B9: SART-3 peptide "416-425" (peptide)
peptide: DYVEIWQAYL
B10: SART-3 peptide "109-118" Val-Tyr-Asp-Tyr-Asn-Cys-His-Val-Asp-Leu (peptide)
peptide: VYDYNCHVDL
B11: SART-3 peptide "284-292" Asn-Tyr-Asn-Lys-Ala-Leu-Gln-Gln-Leu (peptide)
peptide: NYNKALQQL
B12: SART-3 peptide "448-456" Ala-Phe-Thr-Arg-Ala-Leu-Glu-Tyr-Leu (peptide)
peptide: AFTRALEYL

Biological target: T1, HLA-A0201
Experiment: cell-based or functional assay

| IFN-γ in the supernatant (pg/ml) produced by OK-CTL on HLA-A0201-positive T2 cells pulsed with 10 µM peptide, value with no peptide subtracted [pg/mL] | Binder |
| --- | --- |
| 190 | B1 |
| 162 | B2 |
| 122 | B3 |
| 231 | B4 |
| 209 | B5 |

Biological target: T2, HLA-A2402
Experiment: cell-based or functional assay

| IFN-γ in the supernatant (pg/ml) produced by KE-4CTL on HLA-A2402-transfected VA-13 cells pulsed with 10 µM peptide (no peptide: 677) [pg/mL] | Binder |
| --- | --- |
| 880 | B6 |
| 833 | B7 |
| 830 | B8 |
| 731 | B9 |
| 928 | B10 |
| 794 | B11 |
| 754 | B12 |
